The text below walks through data of article PMC5898216 (Nature communications, 2015).

The labels stand for the following.
B2: PriL, primase large noncatalytic subunit, recombinant (natural protein, S. solfataricus, UniProt Q9UWW1 1-307, looked up)
chain: MALDVKKYPFIKSLDDELKKYGGGITLTDLLLNSTTLIDQAKDRIQKTKSGDELPHYVSYNEPVLVFYTTLLSLAILNDVKLIRRYAYAEAKQFRSLLHTENEENLLEISKLLDLKINRCDPIKFYLEKKRRIIQKEFCVHFIDYLKYTKDLKEDWKLSGQILHKGYVYLDKNQLIGLIAESIKSKIVEMIRPLNLKEIPEKLKSLIERRGIIPPCIENILAKEKLNEEEIRTLITFYIDIGKGLSGIVSIMKKYNVSNVEDLYRKYRGDKGTRYIVYSCAKMKQLGLCVSSCNVKNPLQLYFLSNE

The target of assay [1] is T1, PriSL heterodimer (PriS and PriL), recombinant (S. solfataricus, UniProt Q97Z83 1-330; Q9UWW1 1-307).
T1 sequence (looked up) 1: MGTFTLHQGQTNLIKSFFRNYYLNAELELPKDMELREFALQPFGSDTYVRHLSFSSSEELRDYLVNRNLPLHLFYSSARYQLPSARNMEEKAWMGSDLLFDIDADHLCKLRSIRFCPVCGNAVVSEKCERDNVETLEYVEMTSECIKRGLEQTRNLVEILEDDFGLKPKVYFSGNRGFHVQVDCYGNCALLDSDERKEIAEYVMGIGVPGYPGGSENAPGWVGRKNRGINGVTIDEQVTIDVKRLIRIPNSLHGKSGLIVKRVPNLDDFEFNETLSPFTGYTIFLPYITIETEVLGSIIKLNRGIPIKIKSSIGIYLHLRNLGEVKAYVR
T1 sequence (looked up) 2: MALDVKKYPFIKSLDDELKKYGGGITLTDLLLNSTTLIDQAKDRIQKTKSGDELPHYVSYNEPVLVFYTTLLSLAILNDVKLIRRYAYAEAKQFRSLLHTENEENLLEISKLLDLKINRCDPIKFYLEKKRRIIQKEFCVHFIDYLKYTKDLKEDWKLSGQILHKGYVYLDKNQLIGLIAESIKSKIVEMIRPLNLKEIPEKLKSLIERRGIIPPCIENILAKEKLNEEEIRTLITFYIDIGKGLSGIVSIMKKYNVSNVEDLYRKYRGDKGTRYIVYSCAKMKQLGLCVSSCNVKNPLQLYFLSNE
As to the kind of experiment: SEC. A general note: Size exclusion chromatography separates by hydrodynamic size, large species first.

In assay [2] the target is B2. Nature of the assay: ITC. (In general: In ITC the heat of successive injections is recorded.)
Assay [3] has as its target T2, PriS, primase catalytic subunit, recombinant (S. solfataricus, UniProt Q97Z83 1-330).
T2 sequence (looked up): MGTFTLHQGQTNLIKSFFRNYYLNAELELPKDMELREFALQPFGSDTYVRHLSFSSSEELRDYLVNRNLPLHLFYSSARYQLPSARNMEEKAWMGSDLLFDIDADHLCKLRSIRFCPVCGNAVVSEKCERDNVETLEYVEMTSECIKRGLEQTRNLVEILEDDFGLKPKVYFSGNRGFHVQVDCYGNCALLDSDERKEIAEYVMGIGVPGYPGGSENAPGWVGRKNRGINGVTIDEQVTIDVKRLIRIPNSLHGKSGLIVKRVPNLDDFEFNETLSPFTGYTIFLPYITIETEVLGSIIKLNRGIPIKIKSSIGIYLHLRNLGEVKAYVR
As to the kind of experiment: SEC.

B1: PriX (product of Sso0502), recombinant full-length protein (natural protein, S. solfataricus, UniProt Q97ZS7 1-154, looked up)
chain: MSQEKKAKKIILHYPDDTPAGYIEYAEGSSSIYDNEGNFLFKVEGKFPPQPKKSSDYSWIEKVLEMGLQDSRKRFILYVASRYLVNVKGVNEDEALQTLKEFYYKLQSGKVYESWLKSVINGVKKKGLLPWSLKRIEERDKEMYNEIIRVLKNS
B1: the binding result in assay [1] was “binds”. The stoichiometry N (usually the number of molecules, sites or subunits per partner or assembly) in assay [2] was 1.

B2: the binding result in assay [3] was “binds”.
